Laboratory results reported in paper PMC10052518.

What was measured:
[1] = biological target: hFcRn (human neonatal Fc receptor) (human) (UniProt P55899); test: SPR; pH 7.0, bivalent fit, kd1
[2] = biological target: hFcRn (human neonatal Fc receptor) (human) (UniProt P55899); test: SPR; Bia3000; hFcRn immobilised on CM5 chip (<200 RU); increasing concentrations of antibody injected over 180 s, dissociation 400 s; 25 °C; 50 mM phosphate, 150 mM NaCl, 0.05% P20, pH 7; multi-cycle kinetics, bivalent model fit
[3] = biological target: hFcRn (human neonatal Fc receptor) (human) (UniProt P55899); test: SPR; Bia3000; hFcRn immobilised on CM5 chip (<200 RU); increasing concentrations of antibody injected over 180 s, dissociation 400 s; 25 °C; 50 mM phosphate, 150 mM NaCl, 0.05% P20, pH 6; multi-cycle kinetics, bivalent model fit
[4] = biological target: hFcRn (human neonatal Fc receptor) (human) (UniProt P55899); test: SPR; bivalent fit, kd1
[5] = biological target: hFcRn (human neonatal Fc receptor) (human) (UniProt P55899); test: SPR; bivalent fit, kd2 (second site)

| Kd [2] [nM] | Kd [3] [nM] | koff [4] [s⁻¹] | koff [5] [s⁻¹] | Substance | further results |
| --- | --- | --- | --- | --- | --- |
| – | – | – | – | T3 (tocilizumab variant M252Y/T307D/N434Y) | koff [1]: 0.0263 s⁻¹ |
| 570 | – | – | – | A3 (tocilizumab variant M252W/M428K/N434W) (antibody) | – |
| 7.8 | 1.3 | – | – | T8 (tocilizumab variant M252Y/N286E/T307Q/V308P/Q311A/N434Y/Y436V) (antibody) | – |
| – | 380 | – | – | Tocilizumab (antibody) | – |
| – | – | 0.0439 | 0.000765 | B5 (tocilizumab variant T256Y/H285Q/N286D/V308A/N434Y) | – |
| 380 | 13 | – | – | T3 (tocilizumab variant M252Y/T307D/N434Y) (antibody) | – |
| – | – | 0.0053 | 6.52e-05 | C7 (tocilizumab variant T256E/N286H/K288E/V308P/L309D/N434Y/Y436K) | – |
| – | – | 0.000658 | 0.0383 | T8 (tocilizumab variant M252Y/N286E/T307Q/V308P/Q311A/N434Y/Y436V) | – |
| 160 | 34 | – | – | C7 (tocilizumab variant T256E/N286H/K288E/V308P/L309D/N434Y/Y436K) (antibody) | – |
| 620 | 45 | – | – | B5 (tocilizumab variant T256Y/H285Q/N286D/V308A/N434Y) (antibody) | – |
